# Tests used:
# [1] = molecular target: NPM/ALK fusion protein (human); test: co-immunoprecipitation with anti-ALK serum, immunoblot, SUP-M2 lysates
# [2] = molecular target: wild-type NPM (nucleophosmin) (human) (UniProt P06748); test: co-immunoprecipitation, anti-NPM immunoblot
# [3] = molecular target: 85 kDa subunit of phosphatidylinositol 3-kinase (PI3-K) (human) (UniProt P27986); test: co-immunoprecipitation, immunoblot, SUP-M2 lysates
# [4] = molecular target: T1, Src homologous and collagen (SHC) protein (human) (UniProt P29353); test: co-immunoprecipitation, immunoblot, SUP-M2 lysates
# T1 sequence (tyrosine-phosphorylated (sites not given), looked up): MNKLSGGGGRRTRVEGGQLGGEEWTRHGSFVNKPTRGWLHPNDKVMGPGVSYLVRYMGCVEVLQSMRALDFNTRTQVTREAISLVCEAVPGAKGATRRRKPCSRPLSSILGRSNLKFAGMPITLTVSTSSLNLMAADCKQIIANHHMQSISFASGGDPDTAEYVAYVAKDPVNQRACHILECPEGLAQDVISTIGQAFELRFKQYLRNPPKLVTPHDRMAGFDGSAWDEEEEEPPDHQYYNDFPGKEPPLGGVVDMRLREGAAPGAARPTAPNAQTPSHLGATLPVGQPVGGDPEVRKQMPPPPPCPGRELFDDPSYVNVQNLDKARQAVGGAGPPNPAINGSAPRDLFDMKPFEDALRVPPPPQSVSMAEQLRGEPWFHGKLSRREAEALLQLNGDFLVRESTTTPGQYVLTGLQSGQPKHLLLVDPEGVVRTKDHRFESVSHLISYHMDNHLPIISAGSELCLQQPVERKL
# [5] = molecular target: phospholipase-Cγ (PLC-γ) (human) (UniProt P19174); test: co-immunoprecipitation, immunoblot, SUP-M2 lysates
# Sequence of UniProt P19174 (P19174 2-1290): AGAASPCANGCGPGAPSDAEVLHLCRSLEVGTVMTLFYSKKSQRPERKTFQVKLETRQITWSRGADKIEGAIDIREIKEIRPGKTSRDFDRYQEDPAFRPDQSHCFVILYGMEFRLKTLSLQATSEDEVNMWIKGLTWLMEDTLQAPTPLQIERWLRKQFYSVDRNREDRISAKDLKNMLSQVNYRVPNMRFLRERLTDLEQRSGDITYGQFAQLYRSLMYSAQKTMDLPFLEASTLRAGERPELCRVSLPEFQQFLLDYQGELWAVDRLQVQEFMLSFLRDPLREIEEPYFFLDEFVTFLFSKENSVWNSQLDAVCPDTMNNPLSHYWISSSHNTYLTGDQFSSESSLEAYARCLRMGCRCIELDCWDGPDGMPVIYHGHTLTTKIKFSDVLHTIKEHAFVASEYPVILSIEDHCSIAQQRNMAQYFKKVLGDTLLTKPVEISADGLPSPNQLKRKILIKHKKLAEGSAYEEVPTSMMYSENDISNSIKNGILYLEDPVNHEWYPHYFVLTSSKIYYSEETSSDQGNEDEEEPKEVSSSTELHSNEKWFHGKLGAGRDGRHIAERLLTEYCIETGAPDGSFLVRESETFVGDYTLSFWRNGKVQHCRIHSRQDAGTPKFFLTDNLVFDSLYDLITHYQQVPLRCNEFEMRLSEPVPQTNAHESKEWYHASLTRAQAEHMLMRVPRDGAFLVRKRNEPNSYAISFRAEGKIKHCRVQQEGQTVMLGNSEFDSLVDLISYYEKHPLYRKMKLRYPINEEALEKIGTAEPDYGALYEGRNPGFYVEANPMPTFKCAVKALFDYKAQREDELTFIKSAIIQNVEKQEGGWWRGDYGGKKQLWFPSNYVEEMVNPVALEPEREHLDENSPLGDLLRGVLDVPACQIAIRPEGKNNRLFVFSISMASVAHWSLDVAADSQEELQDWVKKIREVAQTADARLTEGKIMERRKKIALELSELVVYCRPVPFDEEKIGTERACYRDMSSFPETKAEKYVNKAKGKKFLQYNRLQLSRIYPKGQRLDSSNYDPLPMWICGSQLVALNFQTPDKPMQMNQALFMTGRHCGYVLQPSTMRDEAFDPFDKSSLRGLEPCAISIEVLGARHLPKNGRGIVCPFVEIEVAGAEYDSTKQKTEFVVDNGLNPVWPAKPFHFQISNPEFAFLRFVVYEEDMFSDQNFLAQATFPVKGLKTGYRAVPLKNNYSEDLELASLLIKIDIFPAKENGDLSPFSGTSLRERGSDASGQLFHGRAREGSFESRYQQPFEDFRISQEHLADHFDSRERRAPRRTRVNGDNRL
# Sequence of UniProt P06748 (P06748 whole entry): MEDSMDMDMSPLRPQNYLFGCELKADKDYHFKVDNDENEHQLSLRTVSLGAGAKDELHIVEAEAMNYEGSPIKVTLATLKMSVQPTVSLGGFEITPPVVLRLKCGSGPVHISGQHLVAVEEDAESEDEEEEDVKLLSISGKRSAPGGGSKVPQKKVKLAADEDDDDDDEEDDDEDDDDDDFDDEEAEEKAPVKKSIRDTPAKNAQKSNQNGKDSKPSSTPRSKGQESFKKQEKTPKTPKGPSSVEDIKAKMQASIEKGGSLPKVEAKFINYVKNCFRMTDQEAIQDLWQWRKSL
# Sequence of UniProt P27986 (P27986 2-724): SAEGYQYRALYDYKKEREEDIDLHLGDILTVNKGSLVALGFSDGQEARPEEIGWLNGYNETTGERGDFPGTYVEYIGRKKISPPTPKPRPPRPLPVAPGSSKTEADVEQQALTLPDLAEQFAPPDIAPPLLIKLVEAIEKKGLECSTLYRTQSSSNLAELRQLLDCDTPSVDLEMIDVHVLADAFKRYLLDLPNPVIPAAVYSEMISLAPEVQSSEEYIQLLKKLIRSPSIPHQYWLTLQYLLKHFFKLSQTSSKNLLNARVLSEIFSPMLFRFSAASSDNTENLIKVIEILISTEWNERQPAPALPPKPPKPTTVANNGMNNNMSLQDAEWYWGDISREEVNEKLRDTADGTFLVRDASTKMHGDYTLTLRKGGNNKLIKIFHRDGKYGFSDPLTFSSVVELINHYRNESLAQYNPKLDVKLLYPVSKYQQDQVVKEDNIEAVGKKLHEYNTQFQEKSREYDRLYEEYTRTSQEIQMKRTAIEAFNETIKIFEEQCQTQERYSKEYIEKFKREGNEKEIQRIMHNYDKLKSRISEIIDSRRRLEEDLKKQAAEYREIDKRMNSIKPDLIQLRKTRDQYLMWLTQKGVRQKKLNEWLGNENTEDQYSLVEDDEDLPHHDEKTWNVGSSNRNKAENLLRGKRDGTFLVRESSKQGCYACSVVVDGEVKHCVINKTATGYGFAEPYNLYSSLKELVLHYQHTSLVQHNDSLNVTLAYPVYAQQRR
percentage of the total cellular amount of the substrate bound to NPM/ALK [1] [%],stoichiometry of the association (ratio) (ratio NPM/ALK:NPM) [2],percentage of the total cell pool of NPM/ALK bound to the substrate [3] [%],percentage of the total cell pool of NPM/ALK bound to the substrate [4] [%],percentage of the total cell pool of NPM/ALK bound to the substrate [5] [%],Substance
1,–,–,–,–,85 kDa subunit of phosphatidylinositol 3-kinase (PI3-K) (from UniProt P27986 2-724)
–,1,< 5,< 5,< 5,NPM/ALK fusion protein (enzyme)
10,–,–,–,–,Src homologous and collagen (SHC) protein (from UniProt P29353 1-473)
1,–,–,–,–,phospholipase-Cγ (PLC-γ) (from UniProt P19174 2-1290) (enzyme)

# Source: patent publication US20010021505A1
